The assay addresses full-length (FL) BRAF^WT, 6x-HIS-BRAF-WT/FLAG (human, UniProt P15056 2-766). Briefly: kinase activity inhibition (ELISA); with 0.1 nM Dabrafenib. Background: ELISA stands for enzyme-linked immunosorbent assay.

full-length (FL) BRAF^WT, 6x-HIS-BRAF-WT/FLAG, sequence (P15056 2-766): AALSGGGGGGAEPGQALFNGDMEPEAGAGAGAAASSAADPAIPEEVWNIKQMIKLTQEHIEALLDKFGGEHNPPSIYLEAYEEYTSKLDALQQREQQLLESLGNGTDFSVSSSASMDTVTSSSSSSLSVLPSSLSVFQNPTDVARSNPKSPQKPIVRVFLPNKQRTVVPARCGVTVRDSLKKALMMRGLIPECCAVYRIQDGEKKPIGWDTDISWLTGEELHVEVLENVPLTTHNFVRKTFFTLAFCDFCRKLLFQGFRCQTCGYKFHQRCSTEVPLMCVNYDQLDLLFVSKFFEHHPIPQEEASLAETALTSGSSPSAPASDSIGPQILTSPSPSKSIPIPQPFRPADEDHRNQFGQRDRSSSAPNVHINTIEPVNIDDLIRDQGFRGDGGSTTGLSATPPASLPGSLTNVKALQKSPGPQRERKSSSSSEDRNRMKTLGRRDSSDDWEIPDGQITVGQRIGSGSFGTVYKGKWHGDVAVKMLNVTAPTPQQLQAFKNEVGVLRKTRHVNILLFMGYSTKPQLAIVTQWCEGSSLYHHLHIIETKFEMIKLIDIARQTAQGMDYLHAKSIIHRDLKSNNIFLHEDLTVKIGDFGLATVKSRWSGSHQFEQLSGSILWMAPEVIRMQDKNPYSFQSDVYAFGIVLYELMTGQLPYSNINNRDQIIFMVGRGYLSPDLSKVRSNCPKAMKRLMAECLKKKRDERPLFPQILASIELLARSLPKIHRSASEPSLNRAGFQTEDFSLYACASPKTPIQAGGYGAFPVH

For TRHVNILLFM [braftide], the IC50 – broadly, the concentration that gives 50% inhibition – turned out to be 280 nM.

The record behind these values is patent US20200360469A1 (published 2020).
